Source: patent publication US20190194253A1 (ARIEL UNIVERSITY RESEARCH AND DEVELOPMENT, published 2019)
Bridge positions count the residues as written; N and C are the ends. Ends that are not written are not given here.

Tests used:
bovine serum albumin [1] = molecular target: T1, bovine serum albumin (bovine, UniProt P02769 25-607); assay: FITC-peptide saturation binding on coated wells, fluorescence plate reader
T1 construct: Control protein coated on wells; also called BSA

bovine serum albumin [2] = molecular target: T1, bovine serum albumin; assay: FITC-labeled peptide added for 30 min to BSA-coated wells, fluorescence plate reader
Description: FIG. 7 is a graph illustrating binding of Fluorescein (FITC)—labeled ALOS peptides to purified Integrin αvβ3, collagen (CG) and bovine serum albumin (BSA). Peptides (concentrations 100 uM, 30 uM, 10 uM, luM) were added to integrin pre-coated wells for 30 min. The fluorescence was measured using Enspire plate reader (PerkinElmer). The plots were built using nonlinear regression analysis (GraphPad Prism).
Binding assay: The binding of peptides to immobilized purified integrin alpha-v-beta3 was evaluated using a fluorescein (FITC) labeled peptides. Purified integrin alpha-v-beta3 was first immobilized onto high-protein binding 96-well plates for 2 hour at 37° C. followed by blocking for two hours with 5% fat dry milk in TBS. After that, plates were washed four times with 200 μl TBS. a) For saturation assays plates were incubated with 100 μl of FITC-labeled peptides solutions in 0.01% BSA in Saline for 30 min at RT. B) For competition assays plates were incubated with different concentrations of unlabeled peptides for 30 min in RT followed by addition of fixed concentration of FITC-labeled peptides and additional incubation for 30 min. Wells were washed twice with TBS. After second wash 100 μl of TBS was added to the each well and fluorescence signal was read at excitation 490 nm and emission 525 nm using Enspire Plate reader (PerkinElmer). Binding data analysis was performed using Prism software (GraphPad Software, San Diego, Calif.). Binding curves were fit using nonlinear regression approaches.

purified Integrin αvβ3 [3] = molecular target: T2, purified Integrin αvβ3 (UniProt P06756 31-992; P05106 27-718, limits assumed); assay: competitive homologous binding: varied unlabeled ALOS4 against 10 µM ALOS4-FITC on αvβ3-coated wells; competitive homologous binding, unlabeled ALOS4 against 10 µM ALOS4-FITC (panel D)
T2 construct: Purified integrin coated on 96-well plates; also called integrin alpha-v-beta3; αVβ3 integrin
Description: (§1) FIGS. 12A-12D illustrate selective binding of ALOS4 to αvβ3. (A) ALOS4-FITC binding in wells pre-coated with integrin αvβ3. […] (B) ALOS4-FITC binding in wells coated with collagen or BSA. (C) Binding of random, FTIC-labeled cyclic peptide controls (DPDFP and DSLFP) in wells pre-coated with integrin αvβ3. (D) Competitive homologous binding of ALOS4 to αvβ3 integrin. 10 μM of ALOS4-FITC peptide was incubated with different concentrations of unlabeled ALOS4 on wells pre-coated with αvβ3. […] Data are expressed as percent reduction of maximal fluorescence signal.
(§2) Binding assay: The binding of peptides to immobilized purified integrin alpha-v-beta3 was evaluated using a fluorescein (FITC) labeled peptides. Purified integrin alpha-v-beta3 was first immobilized onto high-protein binding 96-well plates for 2 hour at 37° C. followed by blocking for two hours with 5% fat dry milk in TBS. After that, plates were washed four times with 200 μl TBS. a) For saturation assays plates were incubated with 100 μl of FITC-labeled peptides solutions in 0.01% BSA in Saline for 30 min at RT. […] After second wash 100 μl of TBS was added to the each well and fluorescence signal was read at excitation 490 nm and emission 525 nm using Enspire Plate reader (PerkinElmer). […]

purified Integrin αvβ3 [4] = molecular target: T2, purified Integrin αvβ3; assay: saturation binding: ALOS4-FITC in wells pre-coated with integrin αvβ3, % of total binding
Description: as §1, §2

bovine serum albumin [5] = molecular target: T1, bovine serum albumin; assay: ALOS4-FITC in wells coated with BSA, % of total binding
Description: as §1, §2

purified Integrin αvβ3 [6] = molecular target: T2, purified Integrin αvβ3; assay: saturation binding of ALOS4-FITC in wells pre-coated with integrin αvβ3, fluorescence, nonlinear regression; direct saturation binding of ALOS4-FITC on αvβ3-coated wells (panel A)
Description: as §1, §2

T1 sequence (P02769 25-607 limits assumed): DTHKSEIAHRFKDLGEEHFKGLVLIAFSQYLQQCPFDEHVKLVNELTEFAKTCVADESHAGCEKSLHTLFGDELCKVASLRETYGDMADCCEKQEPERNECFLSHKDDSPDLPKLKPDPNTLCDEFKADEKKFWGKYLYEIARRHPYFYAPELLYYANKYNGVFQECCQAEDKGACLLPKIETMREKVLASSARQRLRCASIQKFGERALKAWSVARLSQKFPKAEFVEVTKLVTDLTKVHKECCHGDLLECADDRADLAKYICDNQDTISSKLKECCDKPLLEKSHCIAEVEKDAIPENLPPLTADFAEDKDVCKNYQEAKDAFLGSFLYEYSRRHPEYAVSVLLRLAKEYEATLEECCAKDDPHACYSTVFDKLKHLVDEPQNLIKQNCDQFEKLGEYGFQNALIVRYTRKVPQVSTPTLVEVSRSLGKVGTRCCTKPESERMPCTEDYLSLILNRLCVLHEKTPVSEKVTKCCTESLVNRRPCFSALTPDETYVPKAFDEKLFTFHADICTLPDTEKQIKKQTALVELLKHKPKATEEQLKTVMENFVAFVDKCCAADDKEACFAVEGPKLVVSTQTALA
T2 sequence (P06756 31-992 limits assumed, chain 1 of 2): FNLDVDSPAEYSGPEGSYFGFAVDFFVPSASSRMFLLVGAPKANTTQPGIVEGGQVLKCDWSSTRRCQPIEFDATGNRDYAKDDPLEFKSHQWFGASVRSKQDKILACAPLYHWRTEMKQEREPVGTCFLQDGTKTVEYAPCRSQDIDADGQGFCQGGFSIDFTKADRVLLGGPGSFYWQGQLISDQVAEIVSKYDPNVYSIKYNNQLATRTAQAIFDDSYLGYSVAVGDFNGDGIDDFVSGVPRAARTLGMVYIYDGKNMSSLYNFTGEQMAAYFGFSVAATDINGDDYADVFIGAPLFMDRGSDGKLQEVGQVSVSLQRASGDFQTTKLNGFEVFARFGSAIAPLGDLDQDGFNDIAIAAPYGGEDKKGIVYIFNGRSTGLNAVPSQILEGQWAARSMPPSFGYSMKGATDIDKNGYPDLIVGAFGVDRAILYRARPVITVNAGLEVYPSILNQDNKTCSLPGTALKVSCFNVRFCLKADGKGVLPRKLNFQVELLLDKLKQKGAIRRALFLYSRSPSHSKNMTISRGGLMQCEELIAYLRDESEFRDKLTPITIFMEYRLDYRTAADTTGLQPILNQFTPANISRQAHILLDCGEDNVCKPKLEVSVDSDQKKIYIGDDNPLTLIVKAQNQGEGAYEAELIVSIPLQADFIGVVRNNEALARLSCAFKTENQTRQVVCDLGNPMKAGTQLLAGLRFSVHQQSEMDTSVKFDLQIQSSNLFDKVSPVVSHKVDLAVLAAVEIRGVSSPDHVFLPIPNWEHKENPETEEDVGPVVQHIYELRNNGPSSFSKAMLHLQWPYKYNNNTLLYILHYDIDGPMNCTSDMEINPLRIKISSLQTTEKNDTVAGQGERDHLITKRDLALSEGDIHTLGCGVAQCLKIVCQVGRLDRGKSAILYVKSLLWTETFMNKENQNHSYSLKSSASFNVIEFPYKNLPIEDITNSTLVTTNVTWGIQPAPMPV
T2 sequence (P05106 27-718 limits assumed, chain 2 of 2): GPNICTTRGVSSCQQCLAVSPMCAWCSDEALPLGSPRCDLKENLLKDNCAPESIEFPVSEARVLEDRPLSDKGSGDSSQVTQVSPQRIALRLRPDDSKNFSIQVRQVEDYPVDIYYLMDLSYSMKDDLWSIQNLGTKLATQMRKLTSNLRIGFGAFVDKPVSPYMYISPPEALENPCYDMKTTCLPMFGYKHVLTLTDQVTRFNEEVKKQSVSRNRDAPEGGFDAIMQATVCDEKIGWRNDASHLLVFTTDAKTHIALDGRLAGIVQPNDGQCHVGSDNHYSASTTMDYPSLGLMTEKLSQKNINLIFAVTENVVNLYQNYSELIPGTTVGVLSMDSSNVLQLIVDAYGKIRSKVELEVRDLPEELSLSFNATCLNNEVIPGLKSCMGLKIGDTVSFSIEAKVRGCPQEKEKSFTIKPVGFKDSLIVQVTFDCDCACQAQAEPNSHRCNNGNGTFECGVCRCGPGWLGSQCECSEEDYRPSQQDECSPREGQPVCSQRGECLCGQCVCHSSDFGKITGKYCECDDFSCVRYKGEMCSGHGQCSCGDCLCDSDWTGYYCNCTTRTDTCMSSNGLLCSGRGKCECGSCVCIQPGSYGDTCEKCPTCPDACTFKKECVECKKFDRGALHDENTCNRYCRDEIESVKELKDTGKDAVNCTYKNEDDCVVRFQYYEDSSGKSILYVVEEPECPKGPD

B1: ALOS-5, fluorescein (FITC)-labeled (peptide)
peptide: CPLHARLPC
modifications: not fully specified (bridges); cysteine pairing not given here; also: FITC label, position not given here
notes: Synthetic peptide from the phage display screen; also called ALOS peptides; ALOSs
Bovine serum albumin [1]
  binding result: no binding

B2: ALOS-1, fluorescein (FITC)-labeled (peptide)
peptide: CNLSSSWIC
modifications: not fully specified (bridges); cysteine pairing not given here; also: FITC label, position not given here
notes: as for B1
Bovine serum albumin [2]
  binding result: no binding (tested: 100 µM)

## CSSAGSLFC (disulfide 1-9 (inferred), Its concentration was varied) [unlabeled ALOS4]
Purified Integrin αvβ3 [3]
  Kd: 2550 nM

B3: ALOS-3, fluorescein (FITC)-labeled (peptide)
peptide: CAPSPSRLC
modifications: not fully specified (bridges); cysteine pairing not given here; also: FITC label, position not given here
notes: as for B1
Bovine serum albumin [2]
  binding result: no binding (tested: 100 µM)

B4: ALOS-4, fluorescein (FITC)-labeled (peptide)
peptide: CSSAGSLFC
modifications: disulfide 1-9 (inferred); also: FITC label, position not given here
notes: Synthetic peptide from the phage display screen; also called ALOS4-FITC; ALOS peptides
Purified Integrin αvβ3 [4]
  EC50 (read off the curve): ~0.2 µM
Bovine serum albumin [5]
  binding result: no binding (tested: 100 µM)
Purified Integrin αvβ3 [6]
  Kd: 192 nM

B5: ALOS-2, fluorescein (FITC)-labeled (peptide)
peptide: CPPSNHLLC
modifications: not fully specified (bridges); cysteine pairing not given here; also: FITC label, position not given here
notes: as for B1
Bovine serum albumin [2]
  binding result: no binding (tested: 100 µM)
